Assays:
[1] = tested on: monocytes and granulocytes of patients with purulent rhinosinusitis; experiment: monocyte and granulocyte polarization in vitro in patients with purulent rhinosinusitis; assay type: cell-based, human; conditions: 10 patients; thymalfasin, 0.1 mg/ml; FIG. 1
Procedure: The results in 10 patients were evaluated. The monocyte and granulocyte polarizations in 10 patients were evaluated. Initially, 3 to 4 of the patients started with decreased polarization. […] (See, FIG. 1.) As a control, N-formylmethionyl-leucyl-phenylalanine (fMLP)-induced polarization of healthy donor monocytes. (See, FIG. 2.) Concentrations were TP-1, 1 mg/ml, thymalfasin, 0.1 mg/ml and fMLP, 10^−8M.

[2] = cited from earlier work

For “(N-acetyl)-Ser-Asp-Ala-Ala-Val-Asp-Thr-Ser-Ser-Glu-Ile-Thr-Thr-Lys-Asp-Leu-Lys-Glu-Lys-Lys-Glu-Val-Val-Glu-Glu-Ala-Glu-Asn-OH (Ac-SDAAVDTSSEITTKDLKEKKEVVEEAEN-OH) [TA1]”, the “monocyte and granulocyte polarization in vitro” value [1] is given as “worked excellently in improving and restoring the polarization in vitro”, the Peak plasma levels ([2]; after injection of 3.2 mg of TA1 (about 40 μg/kg)) is given as “approximately 100 ng/ml” and the “TA1 circulating in serum” value ([2]; circulating serum level) is given as 0.1 to 1.0 ng/mL. For the same substance, the “half-life in the circulation” value ([2]; in the circulation) was “about 2 hours”.
